± gives the standard deviation of the averaged measurements.
Tested on: ATP
Assay: switch fluorescence ratio, 500 uM ATP over buffer (Cy3 cluster intensity, sum of 5 cycles each) (fold (ratio)); higher = stronger signal-on switching upon ATP binding; sequences stand for … in TCGTCGGCAGCGTCAGATGTGTATAAGAGACAGTTTTTTTTTTTTTTTTTTTTTTTTT…TC
Settings: aptamer strand: ATP DNA aptamer (quencher-CACCTGGGGGAGTATTGCGGAGGAAGG + anchor), 100 nM annealed; ATP concentration: 500 uM
Procedure, shortened: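 The quencher-labelled ATP aptamer, at 100 nM, was annealed to Cy3-labelled switching-strand clusters on a modified Illumina MiSeq flow-cell. The clusters were imaged in selection buffer, then after 15 min with 500 uM ATP at 22 °C, and this buffer/ATP cycle ran five times with NaOH stripping and re-annealing between runs. Per-cluster fluorescence ratios, summed target-cycle over summed buffer-cycle Cy3 intensity, were averaged per switch-domain sequence. Clusters outside 100-1000 RFU were excluded.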
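Further: ATP exposure 15 min at 22 °C before imaging.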

Row | Sequence | switch fluorescence ratio
1 | CTGGAATGGG | 1.02 ± 0.056
2 | CTGGACTTAC | 1.34 ± 0.052
3 | CTGGAGACAG | 1.07 ± 0.018
4 | CTGGATTTAA | 1.0192 ± 7.7e-05
5 | CTGGCGCGGG | 1.02 ± 0.042
6 | CTGGCTACGG | 1.01 ± 0.032
7 | CTGGCTGCGG | 1.01 ± 0.039
8 | CTGGGACCTA | 1.02 ± 0.027
9 | CTGGGAGAGC | 1.05 ± 0.053
10 | CTGGGAGTGT | 0.9946 ± 0.0092
11 | CTGGGATTTT | 0.959 ± 0.0021
12 | CTGGGCAGGG | 1.02 ± 0.055
13 | CTGGGCGGTT | 0.9959 ± 0.0017
14 | CTGGGGAAAC | 1.03 ± 0.064
15 | CTGGGGAAAG | 1.02 ± 0.033
16 | CTGGGGACCT | 1.1 ± 0.066
17 | CTGGGGAGGA | 0.997 ± 0.028
18 | CTGGGGAGGC | 1.06 ± 0.041
19 | CTGGGGCAGA | 1.02 ± 0.011
20 | CTGGGGGCAA | 3.2 ± 0.68
21 | CTGGGGGTAA | 0.992 ± 0.02
22 | CTGGGGGTAG | 1.01 ± 0.016
23 | CTGGGGGTTG | 0.989 ± 0.044

Row | Sequence | switch fluorescence ratio
24 | CTGGGTCGGG | 0.992 ± 0.0079
25 | CTGGGTGGGC | 0.993 ± 0.018
26 | CTGGGTGTGC | 1.01 ± 0.02
27 | CTGGTACAGA | 0.97 ± 0.13
28 | CTGGTATTTG | 1.05 ± 0.041
29 | CTGGTCACAG | 1 ± 0.024
30 | CTGGTCATCT | 0.991 ± 0.011
31 | CTGGTCGGCT | 1.09 ± 0.014
32 | CTGGTCTATT | 0.968 ± 0.017
33 | CTGGTGATTT | 1.05 ± 0.053
34 | CTGGTGCCGA | 0.985 ± 0.015
35 | CTGGTGGGGT | 1.02 ± 0.044
36 | CTGGTGTCGA | 0.978 ± 0.013
37 | CTGGTTACAC | 1.03 ± 0.033
38 | CTGGTTAGGA | 1 ± 0.066
39 | CTGGTTAGGC | 1.01 ± 0.034
40 | CTGGTTTGCC | 0.974 ± 0.048
41 | CTGGTTTGGA | 1 ± 0.022
42 | CTGTAAGCGG | 1.03 ± 0.03
43 | CTGTAATTGT | 0.98817 ± 0.00075
44 | CTGTACAAGC | 1.15 ± 0.03
45 | CTGTACGACA | 1.18 ± 0.02
46 | CTGTACTGGG | 0.9989 ± 0.0061

Row | Sequence | switch fluorescence ratio
47 | CTGTAGGGAC | 1.18 ± 0.025
48 | CTGTAGTAGC | 2.38 ± 1.1
49 | CTGTATATGG | 0.985 ± 0.042
50 | CTGTATATTT | 0.9593 ± 0.0055
51 | CTGTATTACG | 0.995 ± 0.027
52 | CTGTATTATA | 0.996 ± 0.031
53 | CTGTATTCTG | 0.962 ± 0.015
54 | CTGTCAACGG | 1.02 ± 0.017
55 | CTGTCATTTG | 0.985 ± 0.03
56 | CTGTCCTAAT | 1.009 ± 0.0049
57 | CTGTCCTAGG | 1.036 ± 0.0033
58 | CTGTCGACTT | 0.986 ± 0.011
59 | CTGTCGCTTA | 1.01 ± 0.019
60 | CTGTCGTGTC | 0.9934 ± 0.003
61 | CTGTGACCGT | 1.02 ± 0.025
62 | CTGTGCGTGG | 0.973 ± 0.029
63 | CTGTGGCTAT | 1.01 ± 0.023
64 | CTGTGGCTCG | 0.9986 ± 0.0057
65 | CTGTGGCTGG | 0.9795 ± 0.0073
66 | CTGTGGGTTA | 0.9595 ± 0.004
67 | CTGTGTGGCC | 0.968 ± 0.073
68 | CTGTGTGTTA | 0.9816 ± 0.0036
69 | CTGTGTTTGG | 0.997 ± 0.038

Row | Sequence | switch fluorescence ratio
70 | CTGTTAAAGG | 0.999 ± 0.013
71 | CTGTTGCCTG | 0.974 ± 0.041
72 | CTGTTGGGTC | 0.97927 ± 0.00013
73 | CTGTTTAGGG | 1.01 ± 0.018
74 | CTGTTTGTTG | 0.9707 ± 0.0013
75 | CTTAAAAATT | 0.9777 ± 0.0031
76 | CTTAACGGCG | 0.968 ± 0.044
77 | CTTAATCTC | 0.968 ± 0.02
78 | CTTACAGCTA | 1.097 ± 0.0016
79 | CTTACGGGGT | 1.1 ± 0.093
80 | CTTACGGGTC | 0.9901 ± 0.005
81 | CTTACTAGC | 1.02 ± 0.029
82 | CTTAGACCCC | 1.01 ± 0.02
83 | CTTAGAGCGG | 1.01 ± 0.022
84 | CTTAGATAAA | 0.985 ± 0.026
85 | CTTAGATGGA | 0.978 ± 0.023
86 | CTTAGCCGGG | 0.981 ± 0.032
87 | CTTAGCTAGT | 1.09 ± 0.13
88 | CTTAGGATAG | 0.996 ± 0.0029
89 | CTTAGGCCAG | 0.998 ± 0.032
90 | CTTAGGGAGT | 1.006 ± 0.0028
91 | CTTAGGGCTC | 1.026 ± 0.0042
92 | CTTAGGGGTG | 0.973 ± 0.011

Row | Sequence | switch fluorescence ratio
93 | CTTAGGGTT | 0.997 ± 0.044
94 | CTTAGTAGTT | 1.01 ± 0.015
95 | CTTAGTGGCG | 0.9757 ± 0.0038
96 | CTTAGTTAGC | 1.02 ± 0.013
97 | CTTATAACAG | 1.01 ± 0.018
98 | CTTATAGCGC | 1.007 ± 0.0066
99 | CTTATCTGGG | 0.999 ± 0.041
100 | CTTATGAGGG | 0.99 ± 0.025
101 | CTTATGGGGG | 1.03 ± 0.046
102 | CTTATTCGAT | 0.999 ± 0.012
103 | CTTATTGTTT | 0.995 ± 0.069
104 | CTTATTTGGT | 0.992 ± 0.035
105 | CTTCAAAAGG | 1.68 ± 0.96
106 | CTTCAGTTAC | 1.82 ± 0.19
107 | CTTCATCTTT | 0.996 ± 0.018
108 | CTTCCCGCCG | 1.26 ± 0.057
109 | CTTCCGGGGT | 1.68 ± 0.1
110 | CTTCCGTTTT | 1.28 ± 0.042
111 | CTTCGAAGTT | 0.98 ± 0.045
112 | CTTCGGGCGA | 1.1 ± 0.023
113 | CTTCGGGGGA | 0.992 ± 0.01
114 | CTTCGGTAAC | 2.175 ± 0.0072
115 | CTTCTACCTG | 1.01 ± 0.035

Row | Sequence | switch fluorescence ratio
116 | CTTCTCTTCA | 1.02 ± 0.03
117 | CTTCTGGAGG | 1.15 ± 0.028
118 | CTTCTGGGCG | 1.02 ± 0.032
119 | CTTGACAGA | 1.03 ± 0.024
120 | CTTGACGGTC | 1.11 ± 0.1
121 | CTTGACGGTT | 1.01 ± 0.092
122 | CTTGAGATGT | 1.02 ± 0.044
123 | CTTGAGTTAG | 1.015 ± 0.0066
124 | CTTGATACAG | 1.037 ± 0.0026
125 | CTTGATGTTG | 1.01 ± 0.012
126 | CTTGATTTGT | 1.01 ± 0.036
127 | CTTGGAGGGG | 1.0187 ± 0.00015
128 | CTTGGAGTTG | 1.02 ± 0.07
129 | CTTGGCATCT | 1.01 ± 0.033
130 | CTTGGCCGCG | 0.987 ± 0.011
131 | CTTGGGGAAT | 1.13 ± 0.24
132 | CTTGGGGCGC | 1.01 ± 0.049
133 | CTTGGGGCGG | 0.962 ± 0.017
134 | CTTGGGTGAA | 1.09 ± 0.19
135 | CTTGGGTTCT | 1 ± 0.012
136 | CTTGTAATGT | 1.02 ± 0.011
137 | CTTGTCTTAA | 1.02 ± 0.029
138 | CTTGTGCTTG | 1.0058 ± 0.00065

Row | Sequence | switch fluorescence ratio
139 | CTTGTGGTGG | 1.006 ± 0.0089
140 | CTTGTTGAGG | 0.988 ± 0.012
141 | CTTGTTGTTT | 1.03 ± 0.15
142 | CTTGTTTCTC | 0.971 ± 0.028
143 | CTTTACTCAC | 1.27 ± 0.019
144 | CTTTAGAATC | 0.941 ± 0.021
145 | CTTTAGATGT | 0.98 ± 0.034
146 | CTTTAGTCAG | 1.01 ± 0.016
147 | CTTTATATGG | 0.96 ± 0.046
148 | CTTTATGGGA | 0.988 ± 0.031
149 | CTTTCGAGAG | 1 ± 0.025
150 | CTTTCGGGGG | 1.14 ± 0.2
151 | CTTTGACGGG | 0.989 ± 0.013
152 | CTTTGATTAG | 0.9838 ± 0.0061
153 | CTTTGCTTTT | 0.968 ± 0.023
154 | CTTTGGAAAT | 0.9997 ± 0.0023
155 | CTTTGGAGTG | 1.23 ± 0.38
156 | CTTTTAGTAG | 0.974 ± 0.015
157 | CTTTTATAGT | 0.984 ± 0.02

— the supplement of paper PMC10126150
